Assay results: paper PMC13423800, “De novo design of potent CRISPR–Cas13 inhibitors” (Nature Chemical Biology, 2024)

Legend:
LbuCas13a = target: T1, LbuCas13a (Leptotrichia buccalis, UniProt C7NBY4); test: fluorescence polarization; no AIcr (control); 40 nM aRNA, RNP titrated; FP: 1x Cas13a cleavage buffer (composition not in the material), RNP twofold dilutions, 40 nM FAM-aRNA, 2 uM AIcrVIA, 2 h at 37 C; conditions: protein: recombinant; tags: 6xHis-MBP, removed with TEV (SNA left at the N-terminus); label: 5'-6-FAM on aRNA; guide:target 24 bp; guide 5' repeat single-stranded/hairpin; target overhangs 5' C and 3' CC
T1 sequence: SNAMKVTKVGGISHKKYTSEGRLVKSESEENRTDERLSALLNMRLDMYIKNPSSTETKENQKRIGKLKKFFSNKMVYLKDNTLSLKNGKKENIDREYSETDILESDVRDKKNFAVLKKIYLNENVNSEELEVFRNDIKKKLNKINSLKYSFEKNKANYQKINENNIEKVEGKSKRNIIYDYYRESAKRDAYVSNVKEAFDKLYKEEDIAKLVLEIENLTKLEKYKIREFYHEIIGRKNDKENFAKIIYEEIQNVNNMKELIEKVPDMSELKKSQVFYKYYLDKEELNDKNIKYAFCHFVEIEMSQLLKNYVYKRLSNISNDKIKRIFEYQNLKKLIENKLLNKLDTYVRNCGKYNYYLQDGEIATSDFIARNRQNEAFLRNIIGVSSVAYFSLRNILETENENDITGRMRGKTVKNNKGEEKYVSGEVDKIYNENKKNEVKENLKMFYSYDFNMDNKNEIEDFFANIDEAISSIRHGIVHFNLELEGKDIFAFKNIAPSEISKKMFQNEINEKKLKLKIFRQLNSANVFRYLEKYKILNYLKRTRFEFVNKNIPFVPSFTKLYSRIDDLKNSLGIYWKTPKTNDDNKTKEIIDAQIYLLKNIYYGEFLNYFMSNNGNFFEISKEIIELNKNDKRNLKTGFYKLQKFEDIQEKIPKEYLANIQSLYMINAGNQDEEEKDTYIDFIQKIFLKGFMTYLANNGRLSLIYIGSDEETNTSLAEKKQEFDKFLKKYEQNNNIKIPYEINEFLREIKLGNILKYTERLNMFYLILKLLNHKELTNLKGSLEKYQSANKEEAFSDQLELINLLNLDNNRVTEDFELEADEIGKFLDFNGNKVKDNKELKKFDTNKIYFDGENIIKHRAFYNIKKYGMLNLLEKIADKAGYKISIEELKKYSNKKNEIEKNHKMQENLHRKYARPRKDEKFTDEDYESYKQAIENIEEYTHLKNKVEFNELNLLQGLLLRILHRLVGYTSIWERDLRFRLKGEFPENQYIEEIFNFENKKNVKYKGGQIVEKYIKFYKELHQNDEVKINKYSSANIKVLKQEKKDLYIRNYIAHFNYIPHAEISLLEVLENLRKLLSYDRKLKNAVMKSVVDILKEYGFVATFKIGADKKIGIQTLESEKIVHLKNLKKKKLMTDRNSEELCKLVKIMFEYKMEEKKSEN

[1] = target: T2, Leptotrichia buccalis (Lbu) CRISPR–Cas13a (Leptotrichia buccalis, UniProt C7NBY4 1-1159); test: cell-based or functional assay
T2 sequence: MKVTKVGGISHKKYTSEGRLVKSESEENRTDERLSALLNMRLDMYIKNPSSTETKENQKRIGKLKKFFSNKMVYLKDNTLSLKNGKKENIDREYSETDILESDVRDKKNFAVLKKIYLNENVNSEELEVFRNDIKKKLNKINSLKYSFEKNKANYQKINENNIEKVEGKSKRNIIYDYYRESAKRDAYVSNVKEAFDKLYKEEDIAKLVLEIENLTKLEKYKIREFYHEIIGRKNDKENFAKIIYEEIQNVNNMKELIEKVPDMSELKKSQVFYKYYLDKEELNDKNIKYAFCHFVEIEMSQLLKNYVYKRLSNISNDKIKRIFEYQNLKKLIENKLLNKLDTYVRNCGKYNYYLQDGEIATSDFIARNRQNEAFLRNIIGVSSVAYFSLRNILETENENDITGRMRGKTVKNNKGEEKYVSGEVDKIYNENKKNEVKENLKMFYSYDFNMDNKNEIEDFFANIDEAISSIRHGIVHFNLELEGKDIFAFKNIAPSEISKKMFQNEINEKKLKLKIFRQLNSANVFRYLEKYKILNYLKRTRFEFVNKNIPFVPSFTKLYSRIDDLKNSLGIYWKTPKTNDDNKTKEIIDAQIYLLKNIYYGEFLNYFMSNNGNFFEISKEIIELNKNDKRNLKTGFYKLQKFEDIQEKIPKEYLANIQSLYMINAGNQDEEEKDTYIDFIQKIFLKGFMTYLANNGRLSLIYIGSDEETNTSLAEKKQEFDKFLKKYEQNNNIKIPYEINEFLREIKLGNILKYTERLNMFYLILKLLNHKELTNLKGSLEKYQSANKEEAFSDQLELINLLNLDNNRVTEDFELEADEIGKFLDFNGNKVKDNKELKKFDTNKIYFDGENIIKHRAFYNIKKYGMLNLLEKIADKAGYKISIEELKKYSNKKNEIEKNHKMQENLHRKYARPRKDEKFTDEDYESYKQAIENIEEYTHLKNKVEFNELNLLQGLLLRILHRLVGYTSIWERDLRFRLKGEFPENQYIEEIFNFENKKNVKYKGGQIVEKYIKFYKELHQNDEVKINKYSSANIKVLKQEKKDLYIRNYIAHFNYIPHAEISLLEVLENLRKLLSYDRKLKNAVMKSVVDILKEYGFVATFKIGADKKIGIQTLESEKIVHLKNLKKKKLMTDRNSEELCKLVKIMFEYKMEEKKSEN

Binder | binding result (LbuCas13a) | IC50 of inhibition of the LbuCas13a HEPN nuclease (velocity of reporter RNA cleavage by LbuCas13a–crRNA–aRNA against AIcrVIA concentration) [1] [nM]
FP crRNA / 5'-FAM aRNA (mixed, first C of the aRNA is deoxyribose (C*)) RNA: UAGACCACCCCAAAAAUGAAGGGGACUAAAACUUUCUUUCUUUCCUUUUUCUGCCG ?: CCGGCAGAAAAAGGAAAGAAAGAAACC | binds | 
AIcrVIA2 (designed binder) MNEKKEKARKEMKEIAEKAIKEIKKDPEKALEIAVKAVEEIGEIANESGDYKSGEENAWKVAEEYAKVTGDDDTAYDLMLAGDMIIDGKDAEEGYEILKEL |  | ~7
AIcrVIA3 (designed binder) MAPKKYVVTVTIPVTDADLTVFLVVDIIVYAEKLGGTVTITAVKSENDSYSVTLEDLDKAAEELEKVGGSIVLTVTFDNKEKAEKVAEFAYLKAEEYNLKVDVEVKEEL |  | ~7
